Publication PMC3241732 (The Journal of Cell Biology, 2011)

Molecular target: T1, His6-Cdc12 (Saccharomyces cerevisiae, UniProt P32468 1-407)
T1 sequence: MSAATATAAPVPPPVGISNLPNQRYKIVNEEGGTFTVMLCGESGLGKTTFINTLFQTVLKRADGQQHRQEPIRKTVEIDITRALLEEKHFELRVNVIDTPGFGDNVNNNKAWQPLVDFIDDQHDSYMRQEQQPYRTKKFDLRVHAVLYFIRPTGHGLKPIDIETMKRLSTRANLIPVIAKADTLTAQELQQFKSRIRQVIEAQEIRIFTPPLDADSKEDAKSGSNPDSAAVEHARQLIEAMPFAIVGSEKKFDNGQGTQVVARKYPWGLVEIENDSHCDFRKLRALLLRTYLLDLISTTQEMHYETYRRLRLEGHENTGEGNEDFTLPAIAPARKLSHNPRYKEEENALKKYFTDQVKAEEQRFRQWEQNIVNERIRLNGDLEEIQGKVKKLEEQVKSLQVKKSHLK
Test: negative-stain EM, single-particle class averages

B1: Shs1(Δ349–551) (domain or fragment)
chain: MSTASTPPINLFRRKKEHKRGITYTMLLCGPAGTGKTAFANNLLETKIFPHKYQYGKSNASISSNPEVKVIAPTKVVSFNSKNGIPSYVSEFDPMRANLEPGITITSTSLELGGNKDQGKPEMNEDDTVFFNLIMTHGIGENLDDSLCSEEVMSYLEQQFDIVLAEETRIKRNPRFEDTRVHVALYFIEPTGHGLREVDVELMKSISKYTNVLPIITRADSFTKEELTQFRKNIMFDVERYNVPIYKFEVDPEDDDLESMEENQALASLQPFAIITSDTRDSEGRYVREYPWGIISIDDDKISDLKVLKNVLFGSHLQEFKDTTQNLLYENYRSEKLSSVANAEEIGP
In the case of B1, the “percent of particles that are octamers” value is reported as 72%.

B2: Shs1 (natural protein)
chain: MSTASTPPINLFRRKKEHKRGITYTMLLCGPAGTGKTAFANNLLETKIFPHKYQYGKSNASISSNPEVKVIAPTKVVSFNSKNGIPSYVSEFDPMRANLEPGITITSTSLELGGNKDQGKPEMNEDDTVFFNLIMTHGIGENLDDSLCSEEVMSYLEQQFDIVLAEETRIKRNPRFEDTRVHVALYFIEPTGHGLREVDVELMKSISKYTNVLPIITRADSFTKEELTQFRKNIMFDVERYNVPIYKFEVDPEDDDLESMEENQALASLQPFAIITSDTRDSEGRYVREYPWGIISIDDDKISDLKVLKNVLFGSHLQEFKDTTQNLLYENYRSEKLSSVANAEEIGPNSTKRQSNAPSLSNFASLISTGQFNSSQTLANNLRADTPRNQVSGNFKENEYEDNGEHDSAENEQEMSPVRQLGREIKQENENLIRSIKTESSPKFLNSPDLPERTKLRNISETVPYVLRHERILARQQKLEELEAQSAKELQKRIQELERKAHELKLREKLINQNKLNGSSSSINSLQQSTRSQIKKNDTYTDLASIASGRD
For B2, the “percent of particles that are heptamers” value was 15%, the “percent of particles that are hexamers” value was 38% and the “percent of particles that are octamers” value was 47%.

B3: Cdc11 (natural protein)
chain: MSGIIDASSALRKRKHLKRGITFTVMIVGQSGSGRSTFINTLCGQQVVDTSTTILLPTDTSTEIDLQLREETVELEDDEGVKIQLNIIDTPGFGDSLDNSPSFEIISDYIRHQYDEILLEESRVRRNPRFKDGRVHCCLYLINPTGHGLKEIDVEFIRQLGSLVNIIPVISKSDSLTRDELKLNKKLIMEDIDRWNLPIYNFPFDEDEISDEDYETNMYLRTLLPFAIIGSNEVYEMGGDVGTIRGRKYPWGILDVEDSSISDFVILRNALLISHLHDLKNYTHEILYERYRTEALSGESVAAESIRPNLTKLNGSSSSSTTTRRNTNPFKQSNNINNDVLNPASDMHGQSTGENNETYMTREEQIRLEEERLKAFEERVQQELLLKRQELLQREKELREIEARLEKEAKIKQEE
For B3, the “percent of particles that are heptamers” value was 10%, the “percent of particles that are hexamers” value was 4% and the “percent of particles that are octamers” value was 86%.
